Assay results: patent US20160264649A1

Key:
Assay in all cases: cell-based or functional assay
[1] = target: HIV-1 MGRM-G-006 Env (HIV-1)
[2] = target: HIV-1 MGRM-G-017 Env (HIV-1)
[3] = target: HIV-1 MGRM-Chronic-B-023 Env on pseudovirus (HIV-1)
[4] = target: HIV-1 92RW020 Env (HIV-1)
[5] = target: HIV-1 MGRM-C-005 Env on pseudovirus (HIV-1)
[6] = target: HIV-1 MGRM-AE-001 Env (HIV-1)
[7] = target: HIV-1 MGRM-F1-012 Env (HIV-1)
[8] = target: HIV-1 JRCSF Env on pseudovirus (HIV-1) (UniProt P20871)
[9] = target: HIV-1 MGRM-AG-009 Env (HIV-1)
[10] = target: HIV-1 MGRM-D-001 Env (HIV-1)
[11] = target: HIV-1 PVO.4 (Acute) Env on pseudovirus (HIV-1)
[12] = target: HIV-1 MGRM-Chronic-B-011 Env on pseudovirus (HIV-1)
[13] = target: HIV-1 MGRM-AG-001 Env (HIV-1)
[14] = target: HIV-1 SC422661.8 (Acute) Env on pseudovirus (HIV-1)
[15] = target: HIV-1 MGRM-G-015 Env (HIV-1)
[16] = target: HIV-1 93TH305 Env on pseudovirus (HIV-1)
[17] = target: HIV-1 93UG077 Env (HIV-1)
[18] = target: HIV-1 MGRM-C-017 Env on pseudovirus (HIV-1)
[19] = target: HIV-1 MGRM-Chronic-B-012 Env on pseudovirus (HIV-1)
[20] = target: HIV-1 MGRM-D-026 Env (HIV-1)
[21] = target: HIV-1 MGRM-D-016 Env (HIV-1)
[22] = target: HIV-1 THR0.18 (Acute) Env on pseudovirus (HIV-1)
HIV-1 NL43 Env (HIV-1) = target: HIV-1 NL43 Env (HIV-1)
[23] = target: HIV-1 MGRM-G-001 Env (HIV-1)
[24] = target: HIV-1 MGRM-AG-008 Env (HIV-1)
[25] = target: HIV-1 MGRM-Chronic-B-003 Env on pseudovirus (HIV-1)
[26] = target: HIV-1 JRFL Env on pseudovirus (HIV-1)
[27] = target: HIV-1 MGRM-F1-021 Env (HIV-1)
[28] = target: HIV-1 MGRM-F1-016 Env (HIV-1)
[29] = target: HIV-1 93IN905 Env on pseudovirus (HIV-1)
[30] = target: HIV-1 MGRM-AE-004 Env (HIV-1)
[31] = target: HIV-1 MGRM-Chronic-B-010 Env on pseudovirus (HIV-1)
[32] = target: HIV-1 MGRM-F1-006 Env (HIV-1)
[33] = target: HIV-1 MGRM-C-007 Env on pseudovirus (HIV-1)
[34] = target: HIV-1 MGRM-D-008 Env (HIV-1)
[35] = target: HIV-1 MGRM-AE-002 Env (HIV-1)
[36] = target: HIV-1 MGRM-AE-007 Env (HIV-1)
[37] = target: HIV-1 MGRM-C-024 Env on pseudovirus (HIV-1)
[38] = target: HIV-1 93IN905 Env (HIV-1)
[39] = target: HIV-1 TRO.11 (Acute) Env on pseudovirus (HIV-1)
[40] = target: HIV-1 92UG024 Env (HIV-1)
[41] = target: aMLV envelope (negative control pseudovirus)
[42] = target: HIV-1 MGRM-G-019 Env (HIV-1)
[43] = target: HIV-1 MGRM-D-018 Env (HIV-1)
[44] = target: HIV-1 MGRM-C-004 Env on pseudovirus (HIV-1)
[45] = target: HIV-1 IAVI-C22 Env (HIV-1)
HIV-1 APV-6 Env (HIV-1) = target: HIV-1 APV-6 Env (HIV-1)
[46] = target: HIV-1 MGRM-C-020 Env on pseudovirus (HIV-1)
[47] = target: HIV-1 MGRM-F1-004 Env (HIV-1)
[48] = target: HIV-1 LAVIC_18 Env on pseudovirus (HIV-1)
[49] = target: HIV-1 98CN006 Env on pseudovirus (HIV-1)

Substance: b12 (antibody)
- IC50 (µg/ml), pseudovirus neutralization [1]: > 50 µg/mL
- IC50 (µg/ml), pseudovirus neutralization [2]: > 50 µg/mL
- IC50 [3]: > 50 µg/mL
- neutralization IC50 [4]: > 50 µg/mL
- neutralization IC90 [4]: > 50 µg/mL
- IC50 [5]: 2.66 µg/mL
- IC50 (µg/ml), pseudovirus neutralization [6]: 25.9 µg/mL
- IC50 (pseudovirus neutralization) [7]: > 50 µg/mL
- IC50 [8]: 0.21 µg/mL
- IC50 (µg/ml), pseudovirus neutralization [9]: > 50 µg/mL
- IC50 (µg/ml), pseudovirus neutralization [10]: > 50 µg/mL
- IC50 [11]: > 50 µg/mL
- IC50 [12]: 2.11 µg/mL
- IC50 (µg/ml), pseudovirus neutralization [13]: 11.9 µg/mL
- IC50 [14]: 6.11 µg/mL
- IC50 (µg/ml), pseudovirus neutralization [15]: > 50 µg/mL
- IC50 [16]: 4.17 µg/mL
- neutralization IC50 [17]: 41.1 µg/mL
- neutralization IC90 [17]: > 50 µg/mL
- IC50 [18]: > 50 µg/mL
- IC50 [19]: > 50 µg/mL
- IC50 (µg/ml), pseudovirus neutralization [20]: 1.55 µg/mL
- IC50 (µg/ml), pseudovirus neutralization [21]: 1.12 µg/mL
- IC50 [22]: 3.62 µg/mL
- neutralization IC50 (HIV-1 NL43 Env (HIV-1)): 0.06 µg/mL
- neutralization IC90 (HIV-1 NL43 Env (HIV-1)): 0.28 µg/mL
- IC50 (µg/ml), pseudovirus neutralization [23]: > 50 µg/mL
- IC50 (µg/ml), pseudovirus neutralization [24]: > 50 µg/mL
- IC50 [25]: > 50 µg/mL
- IC50 [26]: 0.02 µg/mL
- IC50 (pseudovirus neutralization) [27]: > 50 µg/mL
- IC50 (pseudovirus neutralization) [28]: > 50 µg/mL
- IC50 [29]: 21.4 µg/mL
- IC50 (µg/ml), pseudovirus neutralization [30]: > 50 µg/mL
- IC50 [31]: > 50 µg/mL
- IC50 (pseudovirus neutralization) [32]: > 50 µg/mL
- IC50 [33]: > 50 µg/mL
- IC50 (µg/ml), pseudovirus neutralization [34]: > 50 µg/mL
- IC50 (µg/ml), pseudovirus neutralization [35]: 17.1 µg/mL
- IC50 (µg/ml), pseudovirus neutralization [36]: > 50 µg/mL
- IC50 [37]: > 50 µg/mL
- neutralization IC50 [38]: 34.1 µg/mL
- neutralization IC90 [38]: > 50 µg/mL
- IC50 [39]: > 50 µg/mL
- IC50 (µg/ml), pseudovirus neutralization [40]: 45.6 µg/mL
- neutralization IC50 [40]: 49.1 µg/mL
- neutralization IC90 [40]: > 50 µg/mL
- IC50 (pseudovirus neutralization) [41]: > 50 µg/mL
- IC50 (µg/ml), pseudovirus neutralization [42]: 3.77 µg/mL
- IC50 (µg/ml), pseudovirus neutralization [43]: 1.39 µg/mL
- IC50 [44]: 5.46 µg/mL
- neutralization IC50 [45]: 3.6 µg/mL
- neutralization IC90 [45]: 29.6 µg/mL
- neutralization IC50 (HIV-1 APV-6 Env (HIV-1)): > 25 µg/mL
- neutralization IC90 (HIV-1 APV-6 Env (HIV-1)): > 50 µg/mL
- IC50 [46]: > 50 µg/mL
- IC50 (pseudovirus neutralization) [47]: > 50 µg/mL
- IC50 [48]: > 50 µg/mL
- IC50 [49]: > 50 µg/mL
